{"source": "paper PMC11541587", "about": "(Nature Communications, 2024)", "target": "HA-AMFR (UniProt Q9UKV5 1-643)", "sequence (Q9UKV5 whole entry)": "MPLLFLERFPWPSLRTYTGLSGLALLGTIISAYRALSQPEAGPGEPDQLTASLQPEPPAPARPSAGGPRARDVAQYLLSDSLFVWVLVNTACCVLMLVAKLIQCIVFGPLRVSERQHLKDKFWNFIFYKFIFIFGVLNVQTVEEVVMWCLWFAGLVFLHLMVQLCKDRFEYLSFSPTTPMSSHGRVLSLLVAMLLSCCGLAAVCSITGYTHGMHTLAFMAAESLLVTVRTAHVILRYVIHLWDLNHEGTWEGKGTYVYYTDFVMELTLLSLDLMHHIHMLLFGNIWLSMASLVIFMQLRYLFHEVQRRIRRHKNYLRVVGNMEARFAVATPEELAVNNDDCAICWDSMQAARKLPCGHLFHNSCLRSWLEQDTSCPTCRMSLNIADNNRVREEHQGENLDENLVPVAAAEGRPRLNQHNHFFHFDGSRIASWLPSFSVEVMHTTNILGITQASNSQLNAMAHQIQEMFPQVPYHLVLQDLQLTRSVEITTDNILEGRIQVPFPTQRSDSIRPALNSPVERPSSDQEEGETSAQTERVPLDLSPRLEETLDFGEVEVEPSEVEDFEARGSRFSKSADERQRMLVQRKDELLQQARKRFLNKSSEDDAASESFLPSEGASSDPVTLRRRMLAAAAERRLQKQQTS", "experiment": "co-IP"}
{"binder": "FAM134B (construct and tag not told for these supplementary panels) (natural protein) MASPAPPEHAEEGCPAPAAEEQAPPSPPPPQASPAERQQQEEEAQEAGAAEGAGLQVEEAAGRAAAAVTWLLGEPVLWLGCRADELLSWKRPLRSLLGFVAANLLFWFLALTPWRVYHLISVMILGRVIMQIIKDMVLSRTRGAQLWRSLSESWEVINSKPDERPRLSHCIAESWMNFSIFLQEMSLFKQQSPGKFCLLVCSVCTFFTILGSYIPGVILSYLLLLCAFLCPLFKCNDIGQKIYSKIKSVLLKLDFGIGEYINQKKRERSEADKEKSHKDDSELDFSALCPKISLTVAAKELSVSDTDVSEVSWTDNGTFNLSEGYTPQTDTSDDLDRPSEEVFSRDLSDFPSLENGMGTNDEDELSLGLPTELKRKKEQLDSGHRPSKETQSAAGLTLPLNSDQTFHLMSNLAGDVITAAVTAAIKDQLEGVQQALSQAAPIPEEDTDTEEGDDFELLDQSELDQIESELGLTQDQEAEAQQNKKSSGFLSNLLGGH", "values": [{"measurement": "binding result", "result": "binds"}]}
